PMC7261184, “Human REXO2 controls short mitochondrial RNAs generated by mtRNA processing and decay machinery to prevent accumulation of double-stranded RNA” (Nucleic Acids Research, 2020)

Target: the molecule itself
Test: SEC-MALS; gel filtration coupled with multi-angle light scattering

B1: REXO2, N-terminal-truncated (Δ28aa), wild type (enzyme, human, UniProt Q9Y3B8 29-237, looked up)
chain: GGAAMAAGESMAQRMVWVDLEMTGLDIEKDQIIEMACLITDSDLNILAEGPNLIIKQPDELLDSMSDWCKEHHGKSGLTKAVKESTITLQQAEYEFLSFVRQQTPPGLCPLAGNSVHEDKKFLDKYMPQFMKHLHYRIIDVSTVKELCRRWYPEEYEFAPKKAASHRALDDISESIKELQFYRNNIFKKKIDEKKRKIIENGENEKTVS
notes: human REXO2 (oligoribonuclease, mitochondrial), lacking the N-terminal 28 residues (Δ28aa); Crystallised with an RNA oligonucleotide and Ca2+; also called WT; wild-type REXO2; not shown: 6x His-SUMO, N-terminal, cleaved
  stoichiometry N: 2
